Results from US20180236028.

System: Reelin of primary cortical neurons (endogenous, cellular and supernatant fractions)

MMP-9 (active; Calbiochem, PF140)
Reelin processing in primary neurons, Western blot: application of MMP-9 to primary neurons led to a specific accumulation of the 180 kDa fragment in cells and MMP-9 inhibition for 24 hours led to a dramatic increase in full-length cellular Reelin and decrease in cellular 180 kDa Reelin
